IntAct's records for PubMed 21785459

B1: Parkinson disease protein 7 (Homo sapiens), Q99497 (parent)
chain: MASKRALVILAKGAEEMETVIPVDVMRRAGIKVTVAGLAGKDPVQCSRDVVICPDASLEDAKKEGPYDVVVLPGGNLGAQNLSESAAVKEILKEQENRKGLIAAICAGPTALLAHEIGFGSKVTTHPLAKDKMMNGGHYTYSENRVEKDGLILTSRGPGTSFEFALAIVEALNGKEVAAQVKAPLVLKD

Variants of: B1
Settings: with fadd_human FADD

| effect of a mutation on the interaction | Variant |
| --- | --- |
| disrupting interaction | MASKRALVILAKGAEEMETVIPVDVMRRAGIKVTVAGLAGKDPVQCSRDVVICPDASLEDAKKEGPYDVVVLPGGNLGAQNLSESAAVKEILKEQENRKGLIAAICAGPTALLAHEIGFGSKVTTHPLAKDKMMNGGHYTYSENRVEKDGLILTSRGPGTSFEFAPAIVEALNGKEVAAQVKAPLVLKD [L166P] |

Variants of: B1
Settings: with fadd_human FADD
Remark: another data set of the same source

| effect of a mutation on the interaction | Variant |
| --- | --- |
| decreasing interaction | MASKRALVILAKGAEEMETVIPVDVMRRAGIKVTVAGLAGKDPVQCSRDVVICPDASLEDAKKEGPYDVVVLPGGNLGAQNLSESAAVKEILKEQENRKGLIAAICAGPTALLAHEIGFGSKVTTHPLAKDKMMNGGHYTYSENRVEKDGLILTSRGPGTSFEFAAAIVEALNGKEVAAQVKAPLVLKD [L166A] |
